{
  "source": "patent US20030092616A1",
  "about": "“STAT6 activation gene” (priority 2001, published 2003)",
  "molecules": {"B1": {"name": "6 (nucleic acid, listed as Homo sapiens)", "chain": "TAAAAGAAGAGAAGAGGCTAAAGAAGAAAAGAAGAAAATCAACTTCTTCTTCAAGTGTTTCTTCTGCTGATGAATCAGTGTCTTCATCATCATCCTCTTCCTCTTCTGGTCACAAAAGGCATAAGAAACATAAGAGGAACCGTTCAGAGTCTTCTCGCAGTTCCAGAAGGCATTCATCTAGGGCATCCTCAAATCAGATAGATCAGAATAGGAAAGATGAGTGCTACCCAGTTCCAGCTAATACTTCAGCATCTTTTCTTAACCATAAACAAGAAGTGGAGAAACTACTGGGGAAGCAGGATAGGTTACAGTATGAAAAGACACAGATAAAAGAGAAAGATAGATGCCCTCTCTCTTCATCTTCACTTGAAATACCGGATGATTTTGGAGGTAGGTCTGAAGATCCAAGAGATTTTTATAACAGCTATAAAACCCAAGCAGGTAGTAGCAAAACAGAAAAGCCATATAAATCAGAAAGACATTTTTCCAGTAGAAGAAATTCCTCAGATTCCTTCTGTAGGAATTCAGAGGACAAGATTTATGGTTATAGGAGATTTGAAAAGGATATAGAGGGAAGAAAAGAGCACTATAGAAGGTGGGAACCAGGTTCTGTGAGGCATTCTACCTCACCAGCAAGCTCAGAATACTCTTGGAAGTCAGTTGAGAAATACAAAAAATACGCTCACTCTGGATCACGTGATTTCAGTAGACATGAGCAAAGATACCGTTTAAATACAAATCAAGGAGAATATGAAAGAGAGGACAATTATGGGGAGGATATCAAAACAGAGGTTCCAGAAGAAGATGCACTAAGTAGCAAAGAACACTCAGAAAGCAGTGTTAAGAAAAATTTACCTCAGAATTTACTGAATATATTTAATCAGATAGCTGAATTTGAAAAAGAAAAAGGAAATAAGTCAAAAAATTAATACACCAAGGATATCGGCACCATTACACAAAATGCCATTAAGTGAAGTTTTTGGTTGTATTAGTCATAACAGTTGAGTGCAGAAATCTCTGCTTCTAAAATTATTTGTAGAGATTACAGGAAACAAATGCTTTTAAGTAAGTTTTTCTCAAATTTTGTTTCAGTTCTAGGTCCCTTGTCACAGCTTGGTTTTTAGACTTTTTATGTATATGTTTATGTACAGTATATTACTCTTGACAGTTTGAATTTCTTCACCTAAAGATAATTCTCTGAAAGTACTGTTTCTTCATTCTATTGCGGTATATGAGAATTCCTGGGTGCATCTTATTCTGCTGTTTGAGAGAAAAATTTGTGCATTGAACACTTGGATCATTTTTATAAAAATTAATTTCATTTTCTTTTCTGTTAAATTAAAAATCGTCAGCTTTTGAAAGAT", "modifications": "CDS (379)..(567)"}},
  "test_system": "STAT6",
  "experiment": "Screening of full-length cDNA clones for promotion of STAT6 activation (luciferase reporter N4×8-luc)",
  "type": "cell-based",
  "details": "NIH3T3 cells cotransfected with N4×8-luc reporter and cDNA plasmid; 48 h culture, then mouse IL-4 0.5 ng/ml for 6 h",
  "in_short": "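NIH3T3 cells cotransfected with STAT6-responsive N4×8-luc reporter (100 ng) and full-length cDNA, cultured 48 h, then given mouse IL-4 at 0.5 ng/ml final for 6 h. Luciferase activity compared with reporter plus null-vector control.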",
  "data": [
    {"molecule": "B1", "values": [
      {"measurement": "Activity = (luciferase activity of the gene of each SEQ ID NO:)/(luciferase activity of pME18S-FL3)", "value": 127.5}
    ]}
  ]
}
